Publication PMC9482650, “Quantitative fragmentomics allow affinity mapping of interactomes” (Nature Communications, 2022)

T1: NHERF3_1, Q5T2W1
T1 sequence (Q5T2W1 4-100, limits assumed, looked up): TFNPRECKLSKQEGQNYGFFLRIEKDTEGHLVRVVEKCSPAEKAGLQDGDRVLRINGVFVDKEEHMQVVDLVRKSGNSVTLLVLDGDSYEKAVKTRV

T2: PCLO, Q9Y6V0
T2 sequence (Q9Y6V0 4491-4600, limits assumed, looked up): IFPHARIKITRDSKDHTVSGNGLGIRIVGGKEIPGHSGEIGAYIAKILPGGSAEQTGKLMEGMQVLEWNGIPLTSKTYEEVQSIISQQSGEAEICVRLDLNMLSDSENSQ

T3: SHANK1, Q9Y566
T3 sequence (Q9Y566 658-767, limits assumed, looked up): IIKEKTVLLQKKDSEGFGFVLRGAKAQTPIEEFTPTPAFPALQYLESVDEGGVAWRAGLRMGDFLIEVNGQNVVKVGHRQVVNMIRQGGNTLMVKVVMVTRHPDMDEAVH

T4: MPP2, Q14168
T4 sequence (Q14168 180-250, limits assumed, looked up): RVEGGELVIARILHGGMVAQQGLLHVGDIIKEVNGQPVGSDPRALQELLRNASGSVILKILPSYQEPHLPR

T5: DFNB31_3, Q9P202
T5 sequence (Q9P202 811-907, limits assumed, looked up): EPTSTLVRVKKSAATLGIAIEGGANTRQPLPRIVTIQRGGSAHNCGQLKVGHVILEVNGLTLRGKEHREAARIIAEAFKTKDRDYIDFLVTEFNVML

T6: GRIP1_5, Q9Y3R0
T6 sequence (Q9Y3R0 568-668, limits assumed, looked up): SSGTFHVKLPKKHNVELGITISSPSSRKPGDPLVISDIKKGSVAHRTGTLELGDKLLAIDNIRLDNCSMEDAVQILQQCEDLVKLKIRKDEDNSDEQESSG

T7: LNX2_2, Q8N448
T7 sequence (Q8N448 334-432, limits assumed, looked up): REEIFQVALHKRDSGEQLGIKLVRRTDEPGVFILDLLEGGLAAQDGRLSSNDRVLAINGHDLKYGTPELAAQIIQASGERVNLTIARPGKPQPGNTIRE

T8: TJP3_3, O95049
T8 sequence (O95049 375-456, limits assumed, looked up): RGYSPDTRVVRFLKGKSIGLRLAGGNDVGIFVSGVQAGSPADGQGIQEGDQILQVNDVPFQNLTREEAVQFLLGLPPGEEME

T9: TIAM2, Q8IVF5
T9 sequence (Q8IVF5 885-986, limits assumed, looked up): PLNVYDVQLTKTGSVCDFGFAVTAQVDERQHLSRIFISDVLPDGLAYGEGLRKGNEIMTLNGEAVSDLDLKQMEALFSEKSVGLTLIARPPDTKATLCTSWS

T10: NHERF3_3, Q5T2W1
T10 sequence (Q5T2W1 238-333, limits assumed, looked up): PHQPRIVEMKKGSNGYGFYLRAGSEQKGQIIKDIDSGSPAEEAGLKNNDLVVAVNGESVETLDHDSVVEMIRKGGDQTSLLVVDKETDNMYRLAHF


Experiments:
Experiment in all cases: holdup assay
Parameters in all cases: key: below the threshold = too weak to quantify, mostly under pKd 3.1 to 4
Details in all cases: plain residues with an end cap or a label only (N-terminal biotin on a linker: ado-ado)
DLG4_1, P78352 = biological target: DLG4_1, P78352
DLG4_1, P78352, sequence (P78352 62-152): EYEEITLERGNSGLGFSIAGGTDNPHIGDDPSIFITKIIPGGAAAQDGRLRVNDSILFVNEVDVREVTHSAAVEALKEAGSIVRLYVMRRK

NHERF3_1, Q5T2W1 = biological target: T1, NHERF3_1, Q5T2W1
PICK1, Q9NRD5 = biological target: PICK1, Q9NRD5
PICK1, Q9NRD5, sequence (Q9NRD5 17-115): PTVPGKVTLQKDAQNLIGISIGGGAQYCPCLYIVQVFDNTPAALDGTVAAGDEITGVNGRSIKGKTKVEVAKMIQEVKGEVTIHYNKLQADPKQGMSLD

MAGI2_2, Q86UL8 = biological target: MAGI2_2, Q86UL8
MAGI2_2, Q86UL8, sequence (Q86UL8 410-522): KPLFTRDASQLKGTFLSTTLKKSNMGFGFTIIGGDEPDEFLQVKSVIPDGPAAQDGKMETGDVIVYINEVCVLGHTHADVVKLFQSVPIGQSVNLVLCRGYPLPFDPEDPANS

Inadl_6, Q8NI35 = biological target: Inadl_6, Q8NI35
Inadl_6, Q8NI35, sequence (Q8NI35 1058-1167): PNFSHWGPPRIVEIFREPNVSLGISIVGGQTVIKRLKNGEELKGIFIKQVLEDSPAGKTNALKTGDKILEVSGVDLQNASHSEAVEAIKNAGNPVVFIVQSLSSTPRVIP

PCLO, Q9Y6V0 = biological target: T2, PCLO, Q9Y6V0
PTPN3, P26045 = biological target: PTPN3, P26045
PTPN3, P26045, sequence (P26045 505-587): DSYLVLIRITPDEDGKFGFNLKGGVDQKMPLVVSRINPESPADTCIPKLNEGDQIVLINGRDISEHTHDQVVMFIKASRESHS

MAGI2_6, Q86UL8 = biological target: MAGI2_6, Q86UL8
MAGI2_6, Q86UL8, sequence (Q86UL8 1141-1229): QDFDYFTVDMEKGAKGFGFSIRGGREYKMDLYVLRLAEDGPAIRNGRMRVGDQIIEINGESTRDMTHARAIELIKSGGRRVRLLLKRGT

GRID2IP_1, A4D2P6 = biological target: GRID2IP_1, A4D2P6
GRID2IP_1, A4D2P6, sequence (A4D2P6 1-87): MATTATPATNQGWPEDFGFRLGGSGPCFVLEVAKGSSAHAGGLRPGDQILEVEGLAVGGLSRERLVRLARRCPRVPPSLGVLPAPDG

SHANK1, Q9Y566 = biological target: T3, SHANK1, Q9Y566
MPP2, Q14168 = biological target: T4, MPP2, Q14168
NHERF4_1, Q86UT5-2 = biological target: NHERF4_1, Q86UT5-2
NHERF4_1, Q86UT5-2, sequence (Q86UT5 other isoform, or with tags, fused parts or gaps): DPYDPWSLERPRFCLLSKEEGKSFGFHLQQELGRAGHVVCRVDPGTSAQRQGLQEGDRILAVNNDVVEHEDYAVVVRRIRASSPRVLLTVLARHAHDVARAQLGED

DFNB31_3, Q9P202 = biological target: T5, DFNB31_3, Q9P202
GRIP1_5, Q9Y3R0 = biological target: T6, GRIP1_5, Q9Y3R0
LNX2_2, Q8N448 = biological target: T7, LNX2_2, Q8N448
TJP3_3, O95049 = biological target: T8, TJP3_3, O95049
TIAM2, Q8IVF5 = biological target: T9, TIAM2, Q8IVF5
DLG4_2, P78352 = biological target: DLG4_2, P78352
DLG4_2, P78352, sequence (P78352 155-259): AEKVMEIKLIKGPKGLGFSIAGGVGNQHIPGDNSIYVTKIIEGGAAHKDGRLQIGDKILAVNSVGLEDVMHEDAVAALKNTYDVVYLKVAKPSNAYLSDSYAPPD

DLG2_2, Q15700 = biological target: DLG2_2, Q15700
DLG2_2, Q15700, sequence (Q15700 189-283): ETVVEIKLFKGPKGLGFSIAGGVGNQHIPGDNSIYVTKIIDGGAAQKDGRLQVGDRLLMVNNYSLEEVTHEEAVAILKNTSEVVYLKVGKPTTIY

DLG5_1, Q8TDM6 = biological target: DLG5_1, Q8TDM6
DLG5_1, Q8TDM6, sequence (Q8TDM6 617-713): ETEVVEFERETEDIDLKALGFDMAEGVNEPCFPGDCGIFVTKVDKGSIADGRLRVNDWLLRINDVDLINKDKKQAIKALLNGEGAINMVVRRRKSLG

IL16_1, Q14005 = biological target: IL16_1, Q14005
IL16_1, Q14005, sequence (Q14005 210-306): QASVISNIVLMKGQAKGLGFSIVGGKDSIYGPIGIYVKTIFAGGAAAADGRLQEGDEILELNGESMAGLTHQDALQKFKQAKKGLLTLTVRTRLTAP

Inadl_8, Q8NI35 = biological target: Inadl_8, Q8NI35
Inadl_8, Q8NI35, sequence (Q8NI35 1425-1530): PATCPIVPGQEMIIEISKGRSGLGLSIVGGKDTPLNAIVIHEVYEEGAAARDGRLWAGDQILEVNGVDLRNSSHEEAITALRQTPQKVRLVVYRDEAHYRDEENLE

NOS1, P29475 = biological target: NOS1, P29475
NOS1, P29475, sequence (P29475 9-101): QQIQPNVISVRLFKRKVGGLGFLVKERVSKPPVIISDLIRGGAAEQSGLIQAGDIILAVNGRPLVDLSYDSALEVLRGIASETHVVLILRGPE

FRMPD2_3, Q68DX3 = biological target: FRMPD2_3, Q68DX3
FRMPD2_3, Q68DX3, sequence (Q68DX3 1073-1166): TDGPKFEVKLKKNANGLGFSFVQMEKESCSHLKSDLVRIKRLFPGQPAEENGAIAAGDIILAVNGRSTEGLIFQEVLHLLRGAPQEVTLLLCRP

TJP1_3, Q07157 = biological target: TJP1_3, Q07157
TJP1_3, Q07157, sequence (Q07157 416-512): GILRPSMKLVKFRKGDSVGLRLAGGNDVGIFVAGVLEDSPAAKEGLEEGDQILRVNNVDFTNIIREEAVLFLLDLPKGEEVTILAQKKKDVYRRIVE

NHERF3_3, Q5T2W1 = biological target: T10, NHERF3_3, Q5T2W1
GORASP1, Q9BQQ3 = biological target: GORASP1, Q9BQQ3
GORASP1, Q9BQQ3, sequence (Q9BQQ3 1-208): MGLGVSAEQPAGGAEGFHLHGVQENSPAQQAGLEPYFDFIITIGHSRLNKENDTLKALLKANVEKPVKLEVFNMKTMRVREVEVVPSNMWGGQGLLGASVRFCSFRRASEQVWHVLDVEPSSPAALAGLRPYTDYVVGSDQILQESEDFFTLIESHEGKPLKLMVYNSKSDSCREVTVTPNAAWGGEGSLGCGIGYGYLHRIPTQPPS

Row | Binder | pKd (DLG4_1, P78352) | pKd (NHERF3_1, Q5T2W1) | pKd (PICK1, Q9NRD5) | pKd (MAGI2_2, Q86UL8) | pKd (Inadl_6, Q8NI35) | pKd (PCLO, Q9Y6V0) | pKd (PTPN3, P26045) | pKd (MAGI2_6, Q86UL8) | pKd (GRID2IP_1, A4D2P6) | pKd (SHANK1, Q9Y566) | pKd (MPP2, Q14168) | pKd (NHERF4_1, Q86UT5-2) | pKd (DFNB31_3, Q9P202) | pKd (GRIP1_5, Q9Y3R0) | pKd (LNX2_2, Q8N448) | pKd (TJP3_3, O95049) | pKd (TIAM2, Q8IVF5) | pKd (DLG4_2, P78352) | pKd (DLG2_2, Q15700) | pKd (DLG5_1, Q8TDM6) | also measured
1 | EFKQTSSFLV [JAM1, Q9Y624] | below the threshold | 4.16 | 4.27 | 3.72 | below the threshold | below the threshold | below the threshold | below the threshold | below the threshold | below the threshold | below the threshold | 3.84 | 3.93 | below the threshold | 5.22 | below the threshold | 4.14 | 3.47 | below the threshold | below the threshold | pKd (IL16_1, Q14005): below the threshold; pKd (Inadl_8, Q8NI35): below the threshold; pKd (NOS1, P29475): 3.97; pKd (FRMPD2_3, Q68DX3): below the threshold; pKd (TJP1_3, Q07157): below the threshold; pKd (NHERF3_3, Q5T2W1): below the threshold; pKd (GORASP1, Q9BQQ3): 4.37
2 | PKSNSSKEYV [CLDN7, O95471] | below the threshold | below the threshold | below the threshold | below the threshold | below the threshold | below the threshold | below the threshold | below the threshold | below the threshold | below the threshold | below the threshold | below the threshold | below the threshold | below the threshold | below the threshold | below the threshold | below the threshold | below the threshold | below the threshold | below the threshold | pKd (IL16_1, Q14005): below the threshold; pKd (Inadl_8, Q8NI35): below the threshold; pKd (NOS1, P29475): 3.57; pKd (FRMPD2_3, Q68DX3): below the threshold; pKd (TJP1_3, Q07157): below the threshold; pKd (NHERF3_3, Q5T2W1): below the threshold; pKd (GORASP1, Q9BQQ3): below the threshold

Continued, in another order:

Row | pKd (DLG4_1, P78352) | pKd (NHERF3_1, Q5T2W1) | pKd (PICK1, Q9NRD5) | pKd (MAGI2_2, Q86UL8) | pKd (Inadl_6, Q8NI35) | pKd (PCLO, Q9Y6V0) | pKd (PTPN3, P26045) | pKd (MAGI2_6, Q86UL8) | pKd (GRID2IP_1, A4D2P6) | pKd (SHANK1, Q9Y566) | pKd (MPP2, Q14168) | pKd (NHERF4_1, Q86UT5-2) | pKd (DFNB31_3, Q9P202) | pKd (GRIP1_5, Q9Y3R0) | pKd (LNX2_2, Q8N448) | pKd (TJP3_3, O95049) | pKd (TIAM2, Q8IVF5) | pKd (DLG4_2, P78352) | pKd (DLG2_2, Q15700) | pKd (DLG5_1, Q8TDM6) | Binder | also measured
3 | 3.91 | below the threshold | 4.19 | 4 | below the threshold | below the threshold | below the threshold | below the threshold | below the threshold | below the threshold | below the threshold | below the threshold | below the threshold | below the threshold | 4.32 | below the threshold | below the threshold | 4.11 | 3.86 | below the threshold | KLQNPNQSVV [TYRP1, P17643] | pKd (IL16_1, Q14005): 3.94; pKd (Inadl_8, Q8NI35): 3.97; pKd (NOS1, P29475): below the threshold; pKd (FRMPD2_3, Q68DX3): below the threshold; pKd (TJP1_3, Q07157): below the threshold; pKd (NHERF3_3, Q5T2W1): below the threshold; pKd (GORASP1, Q9BQQ3): 3.53
4 | below the threshold | below the threshold | 4.06 | below the threshold | below the threshold | below the threshold | below the threshold | below the threshold | below the threshold | below the threshold | below the threshold | below the threshold | below the threshold | below the threshold | below the threshold | below the threshold | below the threshold | below the threshold | below the threshold | below the threshold | SQPLLVHDDV [KIT, P10721] | pKd (IL16_1, Q14005): below the threshold; pKd (Inadl_8, Q8NI35): 4.94; pKd (NOS1, P29475): below the threshold; pKd (FRMPD2_3, Q68DX3): below the threshold; pKd (TJP1_3, Q07157): below the threshold; pKd (NHERF3_3, Q5T2W1): below the threshold; pKd (GORASP1, Q9BQQ3): below the threshold
5 | below the threshold | below the threshold | below the threshold | below the threshold | below the threshold | below the threshold | 3.81 | below the threshold | below the threshold | below the threshold | below the threshold | below the threshold | 3.71 | below the threshold | 4.7 | below the threshold | 4.19 | below the threshold | below the threshold | below the threshold | DFKHTKSFII [JAM2, P57087] | pKd (IL16_1, Q14005): below the threshold; pKd (Inadl_8, Q8NI35): below the threshold; pKd (NOS1, P29475): 3.75; pKd (FRMPD2_3, Q68DX3): below the threshold; pKd (TJP1_3, Q07157): below the threshold; pKd (NHERF3_3, Q5T2W1): below the threshold; pKd (GORASP1, Q9BQQ3): 5.07
